Measured values reported in patent US20190345485A1.

Biological target: MCR2(OVA)
Experiment: cell-based or functional assay

OT-II TCR
NFAT-activation triggered by a T-cell population holding 1% peptide-specific CD4+ T-cells (% of the maximal NFAT-activation): 50
